Reference: the supplement of paper PMC9112550, “Optimization of the antimicrobial peptide Bac7 by deep mutational scanning” (BMC Biology, 2022)

Tested on: Escherichia coli TOP10
Experiment: shrunken log2 fold change of peptide-encoding DNA abundance (4.5 h post-induction vs induction); higher = less antimicrobial activity (less host growth inhibition)
Settings: time post-induction: 4.5 h; library: site-saturation at positions 5, 18, 19, 20
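Note: peptides expressed intracellularly from a pBAD plasmid library in pooled LB shake-flask culture, induced with 0.3% L-arabinose, DNA abundance read by NGS, three biological replicates, DESeq2 with apeglm shrinkage.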

Sequence | shrunken log2 fold change
RRIRLRPPRLPRPRPRPSYTPRP | -0.792
RRIRHRPPRLPRPRPRPFRWPRP | 0.137
RRIRVRPPRLPRPRPRPIAGPRP | 0.0142
RRIRGRPPRLPRPRPRPSPEPRP | 0.498
RRIRKRPPRLPRPRPRPWWSPRP | -0.00415
RRIRSRPPRLPRPRPRPVCKPRP | -0.0891
RRIRCRPPRLPRPRPRPHWKPRP | -0.126
RRIRLRPPRLPRPRPRPYLGPRP | -0.425
RRIRFRPPRLPRPRPRPDFKPRP | -0.296
RRIRYRPPRLPRPRPRPGNKPRP | -0.292
RRIRDRPPRLPRPRPRPQAFPRP | -0.184
RRIRHRPPRLPRPRPRPAHEPRP | 0.0538
RRIRMRPPRLPRPRPRPPGCPRP | 0.451
RRIRLRPPRLPRPRPRPGNEPRP | -0.0032
RRIRSRPPRLPRPRPRPQLYPRP | -0.071
RRIRDRPPRLPRPRPRPPIYPRP | -0.242
RRIRFRPPRLPRPRPRPKTVPRP | -0.117
RRIRVRPPRLPRPRPRPWYEPRP | -0.337
RRIRQRPPRLPRPRPRPIDCPRP | 0.0167
RRIRQRPPRLPRPRPRPQVTPRP | -0.00931
RRIRRRPPRLPRPRPRPDVGPRP | -0.042

Sequence | shrunken log2 fold change
RRIRVRPPRLPRPRPRPYIRPRP | -0.434
RRIRSRPPRLPRPRPRPDIVPRP | 0.252
RRIRMRPPRLPRPRPRPYTHPRP | -0.174
RRIRDRPPRLPRPRPRPQFKPRP | -0.0159
RRIRKRPPRLPRPRPRPAKVPRP | 0.0797
RRIRFRPPRLPRPRPRPDLNPRP | -0.321
RRIRARPPRLPRPRPRPIRAPRP | 0.242
RRIRRRPPRLPRPRPRPKAEPRP | 0.0655
RRIRVRPPRLPRPRPRPKSLPRP | -0.0854
RRIRGRPPRLPRPRPRPAVTPRP | 0.688
RRIRFRPPRLPRPRPRPPFKPRP | -0.183
RRIRWRPPRLPRPRPRPQGWPRP | 0.0714
RRIRWRPPRLPRPRPRPRYMPRP | -0.139
RRIRQRPPRLPRPRPRPKEQPRP | -0.0394
RRIRWRPPRLPRPRPRPSLQPRP | 0.0895
RRIRERPPRLPRPRPRPDFHPRP | -0.498
RRIRKRPPRLPRPRPRPSIAPRP | 0.00111
RRIRGRPPRLPRPRPRPFYYPRP | 0.07
RRIRARPPRLPRPRPRPNALPRP | 0.296
RRIRTRPPRLPRPRPRPKIRPRP | 0.0372
RRIRKRPPRLPRPRPRPMCLPRP | -0.0392

Sequence | shrunken log2 fold change
RRIRERPPRLPRPRPRPCAWPRP | -0.0536
RRIRARPPRLPRPRPRPINHPRP | -0.376
RRIRNRPPRLPRPRPRPYGAPRP | -0.397
RRIRYRPPRLPRPRPRPDYFPRP | -0.22
RRIRFRPPRLPRPRPRPCAKPRP | -0.0688
RRIRCRPPRLPRPRPRPTDMPRP | -0.16
RRIRERPPRLPRPRPRPSDHPRP | -0.133
RRIRWRPPRLPRPRPRPVKEPRP | -0.0992
RRIRTRPPRLPRPRPRPFGFPRP | -0.473
RRIRTRPPRLPRPRPRPPAHPRP | 0.252
RRIRERPPRLPRPRPRPKQRPRP | 0.235
RRIRHRPPRLPRPRPRPIAKPRP | 0.05
RRIRYRPPRLPRPRPRPFICPRP | -0.579
RRIRHRPPRLPRPRPRPSIWPRP | -0.244
RRIRGRPPRLPRPRPRPSNIPRP | 1.1
RRIRNRPPRLPRPRPRPVTCPRP | -0.45
RRIRCRPPRLPRPRPRPNNRPRP | -0.738
RRIRHRPPRLPRPRPRPCLMPRP | -0.0298
RRIRLRPPRLPRPRPRPKHQPRP | 0.125
RRIRTRPPRLPRPRPRPECLPRP | 0.105
